Paper PMC8437434

Legend:
[1] = target: tau^4R (residues 244-372, C322A) (UniProt P10636)
[2] = target: tau^4R (residues 244-372, C322A) (UniProt P10636); remark: listed apart in the source

Chain of tau^4R (residues 244-372, C322A) (P10636 561-689 C639A): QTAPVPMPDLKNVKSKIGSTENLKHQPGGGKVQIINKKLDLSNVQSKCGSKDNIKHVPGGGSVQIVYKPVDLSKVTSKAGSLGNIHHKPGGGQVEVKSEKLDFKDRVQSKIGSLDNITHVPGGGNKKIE

reduction of tau fibril mass (kinetic measurements) at equimolar HSPB1:tau [1] [%]	reduction of tau fibril mass (unnormalised ThT kinetics) at 1:1 HSPB1:tau [2] [%]	reduction of tau fibril mass (unnormalised ThT kinetics), DNAJB1:tau 0.5:1 (67%) to 1:1 [2] [%]	Substance
45	47		HSPB1 3D GXG variant (S15D, S78D, S82D, I181G, V183G) (from UniProt P04792 1-205) (natural protein)
		94	full-length DNAJB1 (from UniProt P25685 1-340) (natural protein)
